{"source": "paper doi:10.1101/2025.06.22.660944", "about": "“Structures of MmpL complexes reveal the assembly and mechanism of this family of transporters” (bioRxiv, 2025)", "molecules": {"B1": {"name": "meromycolate extension acyl carrier protein M (AcpM) (natural protein, UniProt A0R0B3 1-99, looked up)", "chain": "MAATQEEIIAGLAEIIEEVTGIEPSEVTPEKSFVDDLDIDSLSMVEIAVQTEDKYGVKIPDEDLAGLRTVGDVVAYIQKLEEENPEAAAALREKFAADQ", "notes": "AcpM, meromycolate extension acyl carrier protein M, of the M. smegmatis host; identified from the cryo-EM map (manual building, DeepTracer) and confirmed by proteomics; Not overexpressed; came along with MmpL5 from the host cells; source: endogenous, M. smegmatis MC2-155; found in the detergent-solubilized crude membranes enriched by sucrose cushion centrifugation"}}, "key": {"[1]": {"target": "MmpL5 transporter (M. smegmatis, MSMEG_1382) (M. smegmatis) (UniProt A0QS80)", "assay": "cryo-EM structure; particle class 2: tripartite AcpM-MmpL5-MmpS5 trimeric complex, 2.81 Å; same LMNG-solubilized crude membrane sample, Build and Retrieve processing"}, "[2]": {"target": "MmpL5 transporter (M. smegmatis, MSMEG_1382) (M. smegmatis) (UniProt A0QS80)", "assay": "cryo-EM structure; particle class 3: dipartite AcpM-MmpL5 trimeric complex, 3.37 Å; same LMNG-solubilized crude membrane sample, Build and Retrieve processing"}, "[3]": {"target": "T1, MmpL5 transporter (M. smegmatis, MSMEG_1382) (M. smegmatis, UniProt A0QS80 1-967)", "T1 construct": "MmpL5, M. smegmatis, gene MSMEG_1382; 12 transmembrane helices and periplasmic subdomains PD1-PD3 (PD3 residues 499-684); Seen as a monomer (one chain per AcpM-MmpL5 unit in 2D arrays) and as a homotrimer (in AcpM-MmpL5-MmpS5 and trimeric AcpM-MmpL5) in the same sample; copies therefore left empty; also called mycobacterial membrane protein large 5; source: M. smegmatis MC2-155, co-expressed with …", "T1 sequence (looked up)": "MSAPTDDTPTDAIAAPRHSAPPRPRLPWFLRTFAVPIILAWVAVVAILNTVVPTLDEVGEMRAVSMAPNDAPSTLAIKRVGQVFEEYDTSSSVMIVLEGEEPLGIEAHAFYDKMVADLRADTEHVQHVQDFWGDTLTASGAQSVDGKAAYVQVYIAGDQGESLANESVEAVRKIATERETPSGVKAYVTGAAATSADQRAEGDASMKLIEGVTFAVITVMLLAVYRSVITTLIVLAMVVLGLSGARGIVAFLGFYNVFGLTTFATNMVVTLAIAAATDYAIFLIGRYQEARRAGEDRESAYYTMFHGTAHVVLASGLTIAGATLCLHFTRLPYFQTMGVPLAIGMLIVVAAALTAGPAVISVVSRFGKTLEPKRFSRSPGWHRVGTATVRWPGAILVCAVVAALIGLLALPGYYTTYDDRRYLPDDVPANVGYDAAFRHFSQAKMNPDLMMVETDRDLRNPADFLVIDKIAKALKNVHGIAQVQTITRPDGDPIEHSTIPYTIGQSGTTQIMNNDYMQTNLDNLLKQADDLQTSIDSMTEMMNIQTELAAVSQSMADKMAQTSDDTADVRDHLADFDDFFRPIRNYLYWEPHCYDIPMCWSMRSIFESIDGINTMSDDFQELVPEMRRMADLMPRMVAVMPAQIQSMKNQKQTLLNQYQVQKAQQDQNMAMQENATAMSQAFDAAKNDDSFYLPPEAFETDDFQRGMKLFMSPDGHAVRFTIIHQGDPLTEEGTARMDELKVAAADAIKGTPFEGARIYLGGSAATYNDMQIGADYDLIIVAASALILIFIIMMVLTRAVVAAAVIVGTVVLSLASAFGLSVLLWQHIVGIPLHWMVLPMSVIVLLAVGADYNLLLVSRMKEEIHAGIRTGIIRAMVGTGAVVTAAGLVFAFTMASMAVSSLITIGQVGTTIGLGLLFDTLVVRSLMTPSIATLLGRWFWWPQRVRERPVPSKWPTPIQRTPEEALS", "assay": "cryo-EM structure; particle class 1: AcpM-MmpL5 monomeric units in 2D arrays, 3.35 Å; LMNG-solubilized crude M. smegmatis membranes enriched by sucrose cushion, Build and Retrieve processing", "details": "partners not purified"}, "[4]": {"target": "T1, MmpL5 transporter (M. smegmatis, …)", "assay": "cryo-EM structure; particle class 2: tripartite AcpM-MmpL5-MmpS5 trimeric complex, 2.81 Å; same LMNG-solubilized crude membrane sample, Build and Retrieve processing", "details": "partners not purified"}}, "data": [{"molecule": "MmpS5 adaptor (M. smegmatis, MSMEG_1381) (natural protein)", "values": [{"measurement": "stoichiometry N (MmpS5 per MmpL5 (3:3))", "setting": "[1]", "result": 1}]}, {"molecule": "MmpL5 transporter (M. smegmatis, MSMEG_1382) (from UniProt A0QS80 1-967) (natural protein)", "values": [{"measurement": "stoichiometry N", "setting": "[1]", "result": 3}, {"measurement": "stoichiometry N", "setting": "[2]", "result": 3}]}, {"molecule": "B1", "values": [{"measurement": "stoichiometry N", "setting": "[3]", "result": "1 AcpM per MmpL5 (1:1)"}, {"measurement": "stoichiometry N", "setting": "[4]", "result": "1 AcpM per MmpL5 (3:3)"}]}]}
